From article PMC11705898

Columns and labels:
[1] = target: S. aureus PitR with amino terminal histidine tag (pETphoU2_6xHN) (S. aureus Mu50); assay: SEC; HiPrep 16/60 Sephacryl S-200 HR, 50 mM NaPO4, 150 mM NaCl pH 7.0, 0.5 mL/min; elution volume compared with volumes calculated from protein standards; loaded immediately after Ni purification
[2] = target: S. aureus PhoU with amino terminal histidine tag (pETphoU1_6xHN) (S. aureus Mu50); assay: as above

| stoichiometry N [1] | stoichiometry N [2] | Substance |
| --- | --- | --- |
| 2 |  | S. aureus PitR with amino terminal histidine tag (pETphoU2_6xHN) (natural protein) |
|  | 2 | S. aureus PhoU with amino terminal histidine tag (pETphoU1_6xHN) (natural protein) |
